# Test results as given in paper doi:10.1101/2022.02.11.480038.
# Experiments:
# [1] = biological target: GABARAP Y5F H9A mutant (human) (UniProt O95166); assay: ITC
# [2] = biological target: GABARAP K48A mutant (human) (UniProt O95166); assay: ITC
substance,measurement,setting,value
"phosphorylated TEX264 LIR (residues 269-278 with p-S271,p-S272) (peptide)",Kd,[1],2 µM
same,Kd,[2],2 µM
